Laboratory results taken from patent publication US20080279864A1.

Molecular target: N-type (CaV2.2) Ca2+ channel (α1B with β2a and α2δ) in HEK293 cells (human; rat), Q00975
Assay: cell-based or functional assay

Sequence of N-type (CaV2.2) Ca2+ channel (α1B with β2a and α2δ) in HEK293 cells (human; rat), Q00975 (P54290 25-1091, stated change not applied, chain 3 of 2, other chains not shown): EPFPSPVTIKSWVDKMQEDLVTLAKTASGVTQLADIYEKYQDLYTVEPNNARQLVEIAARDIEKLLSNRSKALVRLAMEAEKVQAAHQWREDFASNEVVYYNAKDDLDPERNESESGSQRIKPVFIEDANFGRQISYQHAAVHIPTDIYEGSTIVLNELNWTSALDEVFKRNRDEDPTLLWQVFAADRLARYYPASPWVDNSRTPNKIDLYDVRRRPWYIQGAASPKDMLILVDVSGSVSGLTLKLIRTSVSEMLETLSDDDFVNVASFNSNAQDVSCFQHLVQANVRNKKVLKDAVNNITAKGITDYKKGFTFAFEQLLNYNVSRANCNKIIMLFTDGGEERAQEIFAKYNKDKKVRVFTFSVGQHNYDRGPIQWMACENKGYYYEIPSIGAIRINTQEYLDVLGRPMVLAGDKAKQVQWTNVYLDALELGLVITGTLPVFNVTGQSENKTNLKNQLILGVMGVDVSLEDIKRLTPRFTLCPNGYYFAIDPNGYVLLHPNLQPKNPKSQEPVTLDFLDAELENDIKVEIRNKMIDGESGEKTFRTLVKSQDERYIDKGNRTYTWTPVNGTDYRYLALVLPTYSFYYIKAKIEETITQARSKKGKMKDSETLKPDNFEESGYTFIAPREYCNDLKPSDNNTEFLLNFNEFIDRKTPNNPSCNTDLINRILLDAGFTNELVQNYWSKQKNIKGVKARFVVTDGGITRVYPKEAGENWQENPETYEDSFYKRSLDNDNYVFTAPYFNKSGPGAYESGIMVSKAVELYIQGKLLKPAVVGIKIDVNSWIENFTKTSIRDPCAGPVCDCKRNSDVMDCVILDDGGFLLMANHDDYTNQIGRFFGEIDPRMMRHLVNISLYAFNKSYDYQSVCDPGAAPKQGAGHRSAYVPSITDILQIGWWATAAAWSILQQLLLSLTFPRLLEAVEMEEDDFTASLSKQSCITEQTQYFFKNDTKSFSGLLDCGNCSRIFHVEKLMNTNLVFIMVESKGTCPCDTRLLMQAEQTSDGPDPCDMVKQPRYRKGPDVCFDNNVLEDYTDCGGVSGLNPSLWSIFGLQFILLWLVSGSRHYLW

- DF, degree of prepulse facilitation, free NTB with Gβγ: 4
- conversion to constitutively reluctant channels, free NTB with Gβγ: 75%
B1: free NTB peptide (residues 1-95, without CFP fusion) (peptide)
peptide: MVRFGDELGGRYGGPGGGERARGGGAGGAGGPGPGGLQPGQRVLYKQSIAQRARTMALYNPIPVKQNCFTVNRSLFVFSEDNVVRKYAKRITEWP
